The text below walks through data of patent publication US20090137002A1 (published 2009).

Test [1] concerns the target T1, recombinant mouse EphA4-Fc fusion protein (mouse, UniProt Q03137 20-547, limits assumed).
T1 construct: also called mEphA4; not shown: Fc part, not described
The test is described as follows: ELISA: biotinylated mEphrinB2 on coated mEphA4. Here is the method: (§1) A 96-well plate was coated with recombinant mEphB3, mEphA4 and hEphB4 in PBS o/n at 4° C. (5 μg/mL; 100 μL/well). The next day, the antigen was discarded and the plate blocked with 3% BSA/PBS (300 μl/well) for 2 hrs at room temperature (RT). Blocking solution was discarded and anti-EphB4 Fabs were added to the wells at a concentration of 100 μg/mL in 1% BSA/PBS and incubated for 30 min at RT. Recombinant biotinylated murine EphrinB2 was added at a final concentration of 250 ng/mL and incubated at RT for a further 30 min. The plate was washed and bound EphrinB2 was detected with Streptavidin-HRP (incubation 30 min at RT) and chemifluorescent substrate.
On the technique in general: In an ELISA, binding on a coated surface is turned into a signal by an enzyme label.

Test [2] concerns the target T2, recombinant mouse EphB3-Fc fusion protein (mouse, UniProt P54754 30-537, limits assumed).
T2 construct: also called mEphB3; not shown: Fc part, not described
T2 sequence (looked up): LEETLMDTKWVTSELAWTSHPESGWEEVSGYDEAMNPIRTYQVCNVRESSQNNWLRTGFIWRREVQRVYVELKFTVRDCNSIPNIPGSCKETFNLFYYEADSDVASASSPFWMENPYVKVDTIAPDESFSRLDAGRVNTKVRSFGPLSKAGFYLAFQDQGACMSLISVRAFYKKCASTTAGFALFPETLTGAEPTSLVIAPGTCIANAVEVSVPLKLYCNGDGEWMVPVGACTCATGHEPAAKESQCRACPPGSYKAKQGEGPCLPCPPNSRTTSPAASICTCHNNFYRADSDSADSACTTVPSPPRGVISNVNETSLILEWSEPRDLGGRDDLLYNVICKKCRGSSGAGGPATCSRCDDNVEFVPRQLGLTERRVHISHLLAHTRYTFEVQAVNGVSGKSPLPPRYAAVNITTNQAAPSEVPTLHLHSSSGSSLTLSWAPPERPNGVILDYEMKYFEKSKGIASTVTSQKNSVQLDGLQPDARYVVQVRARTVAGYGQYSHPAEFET
The test is described as follows: ELISA: biotinylated mEphrinB2 (250 ng/mL) on coated mEphB3, with or without 100 µg/mL anti-EphB4 Fab. On the procedure: as §1

In test [3] the target is T3, recombinant human EphB4-Fc fusion protein (human, UniProt P54760 16-539).
T3 construct: extracellular domain; also called hEphB4; hu EphB4-Fc
T3 sequence (looked up): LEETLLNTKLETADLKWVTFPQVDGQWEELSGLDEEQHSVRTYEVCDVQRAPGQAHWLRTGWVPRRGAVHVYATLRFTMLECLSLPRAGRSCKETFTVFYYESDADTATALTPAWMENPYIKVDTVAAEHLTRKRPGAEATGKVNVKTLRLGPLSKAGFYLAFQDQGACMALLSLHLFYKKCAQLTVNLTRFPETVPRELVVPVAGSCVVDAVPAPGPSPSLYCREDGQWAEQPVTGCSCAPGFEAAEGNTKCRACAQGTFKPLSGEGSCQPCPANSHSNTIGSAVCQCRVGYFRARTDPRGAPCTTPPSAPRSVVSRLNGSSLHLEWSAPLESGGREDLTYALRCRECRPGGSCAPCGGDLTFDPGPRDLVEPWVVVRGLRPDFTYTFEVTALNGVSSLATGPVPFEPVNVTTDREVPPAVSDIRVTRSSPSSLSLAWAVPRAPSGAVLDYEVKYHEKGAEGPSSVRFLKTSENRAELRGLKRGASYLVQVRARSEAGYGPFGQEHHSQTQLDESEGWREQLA
The test is described as follows: ELISA: biotinylated mEphrinB2 (250 ng/mL) on coated hEphB4, with or without 100 µg/mL anti-EphB4 Fab. On the procedure:
as §1

In test [4] the target is T4, myc-tagged human EphB4 on transfected CHO cells (human, UniProt P54760 16-987).
T4 construct: whole, on cells; also called CHO-EphB4; CHO-hEphB4; not shown: myc tag
T4 sequence (looked up): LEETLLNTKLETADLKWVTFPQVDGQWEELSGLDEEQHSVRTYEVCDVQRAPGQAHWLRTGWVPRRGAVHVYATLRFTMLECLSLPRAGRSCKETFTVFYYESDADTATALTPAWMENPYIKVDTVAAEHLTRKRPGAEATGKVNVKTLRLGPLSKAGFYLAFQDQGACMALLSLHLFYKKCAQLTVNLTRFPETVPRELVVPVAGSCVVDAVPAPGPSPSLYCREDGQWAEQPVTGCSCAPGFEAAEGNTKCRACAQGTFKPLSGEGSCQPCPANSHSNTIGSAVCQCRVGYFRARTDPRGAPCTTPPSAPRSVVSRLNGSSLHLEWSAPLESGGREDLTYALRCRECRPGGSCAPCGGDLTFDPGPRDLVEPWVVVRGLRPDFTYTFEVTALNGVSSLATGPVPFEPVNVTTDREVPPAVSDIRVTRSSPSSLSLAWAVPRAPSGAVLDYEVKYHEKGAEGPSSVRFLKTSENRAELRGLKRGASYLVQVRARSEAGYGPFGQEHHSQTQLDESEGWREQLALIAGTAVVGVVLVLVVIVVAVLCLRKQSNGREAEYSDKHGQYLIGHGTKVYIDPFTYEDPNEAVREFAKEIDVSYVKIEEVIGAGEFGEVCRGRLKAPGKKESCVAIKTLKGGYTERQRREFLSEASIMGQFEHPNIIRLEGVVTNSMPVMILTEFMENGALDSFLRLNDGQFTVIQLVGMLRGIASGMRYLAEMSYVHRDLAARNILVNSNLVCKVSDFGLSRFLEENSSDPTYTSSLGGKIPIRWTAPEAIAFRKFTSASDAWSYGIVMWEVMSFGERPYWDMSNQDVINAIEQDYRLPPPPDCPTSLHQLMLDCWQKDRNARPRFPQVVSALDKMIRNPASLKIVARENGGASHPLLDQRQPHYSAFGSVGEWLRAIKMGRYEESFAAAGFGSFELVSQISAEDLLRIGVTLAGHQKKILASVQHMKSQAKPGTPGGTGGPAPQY
Briefly: FACS titration of IgG4-Pro on CHO-EphB4 cells; n = 1. Here is the method:
(§2) For the determination of EC50 values, the 12 final IgGs were analyzed on CHO-EphB4 cells in FACS. The EC50 values of the IgGs, determined in two independent experiments, are given in Table 11 and are compared to the EC50 values of the corresponding Fab. […] Again, as already seen for the Fab, the EC50 values of the MOR07310 pool were slightly better than those of the MOR03641 pool.

Test [5] has as its target T4, myc-tagged human EphB4 on transfected …. The test is described as follows: FACS competition on CHO-EphB4 cells, competitor murine ephrin-B2. On the procedure:
(§3) C50 values (i.e. IgG4-Pro inhibition of ligand binding) were determined in FACS. […] Receptor-bound ephrin-B2 was detected via biotinylated anti-mouse ephrin-B2 antibody (R&D Systems) and streptavidin-PE. The IC50 values of the IgGs, determined in two independent experiments, are given in Table 11 and are compared to the IC50 values of the corresponding Fab. […] Again, as already seen for the Fab, the IC50 values of the MOR07310 pool were slightly better than those of the MOR03641 pool.

Test [6] shares this target. The test is described as follows: FACS, IgG4-Pro inhibition of murine ephrin-B2 binding to CHO-EphB4 cells. Here is the method: as §3
On the technique in general: In flow cytometry, cells or beads pass a laser one at a time.

For test [7] the target is unchanged. The test is described as follows: FACS titration of IgG4-Pro on CHO-EphB4 cells; end tied by Table 11 (4.83). On the procedure:
as §2

Test [8] shares this target. Briefly: FACS titration of IgG4-Pro on CHO-EphB4 cells. On the procedure: as §2
Test [9] has the same target. Briefly: FACS, IgG4-Pro inhibition of murine ephrin-B2 binding to CHO-EphB4 cells; end tied by Table 11 (11.55). On the procedure: as §3

T1 sequence (Q03137 20-547 limits assumed): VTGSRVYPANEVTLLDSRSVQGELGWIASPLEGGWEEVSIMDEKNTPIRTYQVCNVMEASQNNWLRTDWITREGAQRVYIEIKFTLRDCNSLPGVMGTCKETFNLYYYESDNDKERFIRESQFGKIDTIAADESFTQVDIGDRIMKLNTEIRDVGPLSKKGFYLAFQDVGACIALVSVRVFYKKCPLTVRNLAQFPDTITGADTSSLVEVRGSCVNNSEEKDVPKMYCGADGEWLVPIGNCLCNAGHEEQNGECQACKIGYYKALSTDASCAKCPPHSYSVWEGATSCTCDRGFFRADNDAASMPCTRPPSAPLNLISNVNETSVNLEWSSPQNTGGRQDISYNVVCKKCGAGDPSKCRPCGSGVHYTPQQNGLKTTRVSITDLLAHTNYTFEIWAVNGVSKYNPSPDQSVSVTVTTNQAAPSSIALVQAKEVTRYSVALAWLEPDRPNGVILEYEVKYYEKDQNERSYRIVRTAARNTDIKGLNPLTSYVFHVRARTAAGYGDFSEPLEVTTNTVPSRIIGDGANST

B1: recombinant murine EphrinB2 (extracellular domain) (ligand, mouse, UniProt P52800 29-232, looked up)
chain: RSIVLEPIYWNSSNSKFLPGQGLVLYPQIGDKLDIICPKVDSKTVGQYEYYKVYMVDKDQADRCTIKKENTPLLNCARPDQDVKFTIKFQEFSPNLWGLEFQKNKDYYIISTSNGSLEGLDNQEGGVCQTRAMKILMKVGQDASSAGSARNHGPTRRPELEAGTNGRSSTTSPFVKPNPGSSTDGNSAGHSGNNLLGSEVALFA
modifications: biotinylated in Examples 8 and 10-12
notes: extracellular domain; also called mEphrinB2; recombinant biotinylated murine EphrinB2
Consider B1, for which the binding result is reported as “no binding (tested: 250 ng/mL)” in test [1], “binds” in test [2] and “binds” in test [3].

B2: MOR07720 IgG4-Pro (antibody, V domains shown)
VH: QVQLVESGGGLVQPGGSLRLSCAASGFTFNNAWMSWVRQAPGKGLEWVSQIEAKQPGGATSYAASVKGRFTISRDNSKNTLYLQMNSLRAEDTAVYYCARKGMSFYNNKYAKSMFDLWGQGTLVTVSS
VL: DIELTQPPSVSVAPGQTARISCSGDNLGKKYVHWYQQKPGQAPVLVIYYDSKRPSGIPERFSGSNSGNTATLTISGTQAEDEADYYCSAWTTTMMHIVFGGGTKLTVLG
notes: Fab MOR07720 converted into human IgG4-Pro format
On to B2, for which, in test [4], the concentration giving a half-maximal response (EC50) amounted to 0.3 nM. In addition, the “IC50 (read off the curve)” value in [5] is roughly 0.1 nM. Further, in [6], the IC50 was determined as 0.11 nM.

B3: MOR07729 IgG4-Pro (antibody, V domains shown)
VH: QVELVQSGAEVKKPGSSVKVSCKASGGTFSTYAISWVRQAPGQGLEWMGRIIPIFGTANYAQKFQGRVTITADESTSTAYMELSSLRSEDTAVYYCARSSYTILTTYYNYNAMDNWGQGTLVTVSS
VL: DIQMTQSPSSLSASVGDRVTITCRASQNINNFLNWYQQKPGKAPKLLIYGSSILQSGVPSRFSGSGSGTDFTLTISSLQPEDFATYYCQQYDFYLSGTFGQGTKVEIKR
notes: Fab MOR07729 converted into human IgG4-Pro format
As to B3, the values for the EC50 in test [7] and in test [8] were 4.8 nM and 4.83 nM, respectively. Besides, in test [5], the “IC50 (read off the curve)” value was roughly 20 nM. Besides, the “EC50 (read off the curve)” value in test [8] was roughly 5 nM. Also, the IC50 in [6] and in [9] was 11.6 nM in each case.

By EC50 is commonly meant the midpoint of the concentration-response curve. A high value points to weaker potency. The term IC50 denotes the concentration needed to halve the response being measured. A lower IC50 goes with greater potency in that assay. By EC50 (read off the curve) is commonly meant the concentration needed to bring the measured effect to its halfway point. A high value points to a need for much substance.
